From the NTF2 design screens of Basanta et al. (2020)

Experiment: protease stability score; higher = more stable; yeast display proteolysis, trypsin and chymotrypsin;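 further: relative to predicted unfolded state with 0 unfolded-like and 1 meaning tenfold more protease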

## DEEQQDLIEVVNRYLRAVLTGDEDDLRELLDPHYRIRIGDKEFVGWKEFIRHVREARYTIHRWSVDSVEIIGDKVILYGELDGIEKVNGKTIKKRFEVIFYINKIDGRWHFKHIEFH
  protease stability score: 2.29

## DEEQRHAHKIVDRLLELIMTGDEDDLYRLADPNTRIDINGKKFHGMDFWFHLLRRVDHFEVEDFSLKRSDRVDGVAELDHRTTIRVIIGDKTIRLEIRHRMWVVKVDGRWKIEEVVIR
  protease stability score: 1.04

## DEEQRVEEEMAEMQRLWHETGDEESIQKNLDPRTRIVIHINGKEIRLHGREAWLKEVRRLGVKYLRIEDMEVVDGRVHARIHYTVNGVKIRIRVEFYIVDGRMEEIRRHWE
  protease stability score: 0.432

## DEEQTQMEETVNVVLSAMRTGDEETSKKLADPNVKIRINGREFHGRDFYAHVILMFGIDHIEMRIERYEFQGEKLILRGRLRLEFNGKEETSDVIEIWWKVDGRWHLDNYYEN
  protease stability score: 1.37

## DEERDEARRVLEIFIKVFRTGDWHILHELADPHVRMDVNGREFIGREDYVKFFRYEMEIFGVERIDIKIHDVHVYNGRIEVHTRQNINGKERDTHLEIHKINGQWHLRDVRIH
  protease stability score: 1.44

## DEERDETRELLRRLQELLRTGDEEEIRKLADPHVRSDVNGREYHGRDWATHLIMRFDHLDIERIRIFDGRIETDFRVEIGDKTFQTRMHVRKIDGRWNIKEIKII
  protease stability score: 1.55

## DEERDHLLEISQRIIHSWVTGDWKLFARLIDPHARLIFHFENVDLHYHGREQVVTFIIEMRIQHIDIRRYTVQGNKVHIDGHQKIEIGDKSIRTDSEMNSIIVNGKLHETFLIFK
  protease stability score: 1.45

## DEEREDIEKVTHILSEIWETGDEHRLHRMLDPNTKVVIDGVEIHGRELIIRFRKELRHKLGLDRIEVDIDHIEVQGDKAISDTSIDYNGREFKVINTVHKYNGRWLVHRIIHE
  protease stability score: 0.815

## DEEREDVETHLRVLYDLILTGDEEDIRNLLDPHVRLDFNGKDIHGMERVSHHMRELRIERLEIKRWDVVNGRVHMDLHIVFHYGDKRRDTEVHVIMLKIDGRWHLESIHIK
  protease stability score: 2.21

## DEEREELHRHIKILNKAWTTGDERLLYELMDPHAKINIDGVDFIGREEATEEYHHRWRHLGVDHFEVRFTEIHDIDGRLHMQTKLNLIVNGQREERHTRVHVRKINGRWLVHNLEIR
  protease stability score: 0.125

## DEEREFSERAIEMSLEDWLTGDEHRMHRMLDPHVRLDIDGRDIIGRERMTKIIFEINKTLGVDHVEFHDHEIQGDKVHSHLDVHINGRRLRITLHLYKIDGRWQIREVKVV
  protease stability score: 1.13

## DEEREHSEEALLLLLHLIMTGDEEELIKNVDPNARITQGDKEFHGREVVIKHLFELMHRFGVKHFTVDHVEIFNGRLFIRFTLHFNGRKIDEHLILVKINGRWLLKSMEIK
  protease stability score: 2.21

## DEEREIIETFFRESLEVIKTGDWKTFDDLLDPRARLNIGDKDYHGRHEIVRQWHKQFKDLGVDHIENKDLRIFDGKIETHFDLEVGDKRIHLEFHATKIDGRWLFHEIRVQ
  protease stability score: 1.97

## DEEREKSELAIKIMKHVWETGDETLKSELFDPNARIHIDGKEIVGREEIEDQLRHIRMHITMFDINSTKFVDGRLEVYLNRRVRLFFDGREIEEEQHIHVVLLKINGRWQLQELEVT
  protease stability score: 1.36

## DEEREKVIRFLERFQESSRTGDEETLHRLADPNVKLTVDGRELHGREVMVRYAIEWRIEDVEPKRYTEQGDKLILHVRIHTTIGDKHEVREVDLFVRKIDGRWIMEEFRVR
  protease stability score: 0.96

## DEERELAKWAEEMLRRRFETGNERFWEELADPNTRSDINGVELIGRETVVHFLREEQRHMGVDHTDVKHTNVELQGDKVIVRMDVELHFDGVTVRSTLSYTSIKFNGRWILHSIEHHIH
  protease stability score: 1.13

## DEERELLDHLAKFILSVVRTGDWESMLRMADPNARIQIDGREYHGMDFFIRHWWELGIDHERIDKIDIQGDKLFIHRTLEYDGQEIDSELYIIVINGKLKSIDIRIR
  protease stability score: 0.764

## DEERELLKFFLKAWSKALVTGDEQTLLDLVDPNARNVIGDKDLIGREFLEKVLREMRITEVHIEDIKFQGEFVTSDLRMRVRQGDKEFDIRVRLVVYKYDGRWVFKTFHME
  protease stability score: 2.23

## DEERELLKRFIELWFHAIKTGDEDQLIRLLDPHVRIDINGVDIHGMEKYIHEHLRLERERGFEIRDFKIKHIEIQGEKAHVDTRLSGMVDGRHVDVRNRFIIYKFNGRWIFHSFHVD
  protease stability score: 1.24

## DEERELTEKLTRKLIHNWLTGDPEAIRRMLDPNVRVIINGQELHGRERFHEHMHHLLRHMRIDHIDIKDWKFQGEKFHIDLHVHGTIDGVHFIHRTESSVIIVNGKIHQMHVHEI
  protease stability score: 1.41

## DEERELYKRHWDRLNRAIHTGDEEEVRRLADPDYKIRIGDKTLHGREDIKKFLEHIRISVESFEIKDMHDIDGVIEVDGKVELRLVVDGRTFRIETRVVYYILKVNGRWLMHSEIYH
  protease stability score: 0.82

## DEERENAERMLKAWVEILETGDEHRISRLLDPNVQFQIGDKHLHGREDVLRHLSEMIKKVKNLTISIHSINIQGDKVHVDGHIHVNGVDHKNDLILLKVNGRWFVTSLKIE
  protease stability score: 1.78

## DEERENIEKALRLLEHFNKTGNEEDINRLMDPHARSHINGKDVHGREEVVRMLRELGVERIEVEDLEIERSKQVDGRIEIHVHTVVNFNGRHTEFRVEIIAVKVNGKWIMRSVIFE
  protease stability score: 1.56

## DEERERREDETRLLLEILITGDEDRFRQLADPHMKLHIGDKDFIGREVAVKFLRDLWREFGIKHILFEDSTIVGDKLEHRMHLEVNGKRRRMELENVIIDGRVHSMHIRIH
  protease stability score: 1.39

## DEERHDAEEASREIMRSYETGDETEYLNLLDPHARMTVGDKEFHGREDILRWWHELNEKLGVDRIHLHLEHIRVINGVVESHVRLNVNGREHRVELLVYKVNGRWLIREMHFR
  protease stability score: 1.68

## DEERHEALRVAKEFMHNFWTGNEELNRHLIDPNVRLTIEVGDKRIDRVGRESFSHTLHRWREHLRIEDLDETRIDVQGDKAVLHTIMHIKIGDKHITVEVDINILVVDGRLRHIRVIVR
  protease stability score: 2.01

## DEERHHFERVYEELMHVRRTGDWERYWELLDPDARLEINGQKYHGREDVLKAVTDIMRHWREKEFDFKRMDVQGDKVKIEGRVNGNFNGRDINTDVEIQITVVDGRLRHERFIIK
  protease stability score: 1.71

## DEERHILEELMRILTEAMHTGDEHLLEWLLDPHMIIEIGDKTLHGRDQILRVVEEIRRHIRRIEVKHSHVQGDKIRIEGHMHSETEFNGRRFSFTVYVEIIIVKINGVWRIRSLHIH
  protease stability score: 1.39

## DEERHYVEHIIKLLSRHIYTGDFEAFEELLDPNALIIIGDKHLVGREDWRRLVHEIRIRNEHVEIEDVNVYDGRAESKVTFHGRREYDGRTTETNLDVNYFLLKINGRWVFESLEIR
  protease stability score: 1.67

## DEERKDFEEALKKWLESMETGDEKHLEELFDPNAKFLIDGVELHGREVFKEFLRRFKNVRVEELHLDHLEVQGDKVITHVTFRGTFNGKHENVHRILIAVKFDGRWFVRSIEVH
  protease stability score: 2.34

## DEERKDTKEAIERVRDTWRTGDEQDIFNNVDPNTRMIVGDKHHHGMEDVARLAFEWRVHDFRFHEVHSSEDHVILDGRVDGEINGRRINTKMILILLKIDGRWHIESIQYI
  protease stability score: 0.805

## DEERKEFEEVFRQWIHALRTGDEDSELRNLDPNARIVVGDKEVHGREESERYLRETLHRADHMDFELHRLDVQGDKVHIDGTMILVVNGQEIRYRIHFISVKIDGRWLLRSVIIH
  protease stability score: 1.86

## DEERKELEEALRELKHSWETGDWRSLSEMADPNVLLKQGDFEYHGRELFLEFMRHLIEHLGIKHVEIRDMKIFENRVDMDVIIRFNGQTTRIQIILVKFNGRWFIKSVIIR
  protease stability score: 2.02

## DEERKESQKALELMLELFQTGDEEELSKFADPHVRLEFRVGDKRFEIHGREEVSRFFHELIWRIKNLRLTRHNDEVQGEKVIIHFELRQGDKRSEINIIAIKINGRWFIKHETVILL
  protease stability score: 1.62

## DEERKETEEATRQDIHDFRTGDEKSFDEFFDPNVRLDINGVRVHGRELASKWFRDFFRELGVKHSEIEHREIQGEKAIVNEDVRVGDKRVEVILVYLKINGRWEITTVTLRHE
  protease stability score: 1.05

## DEERKEYEDALTLFIEYLLTGDFERLEHLADPTTRLIVNGQEFHGRELVMRQLLEIRFHDHKLHDYKVVNGVAILDTRDRGIINGQETIFKTHIVLQKIDGRWVLRRYEIR
  protease stability score: 1.38

## DEERKFLKKMHEILDKSERTGNEEDIMRLVDPEVRLTVGDKELHGWSAMHEYFKRWIDKFPGVRVHFELNDITIVDGRILNIVHTKFEFDGREFQLTATIFAHKYDGRWTLTSMRYE
  protease stability score: 1.09

## DEERKFWEEVMRLMREAFETGDEHLIERMADPHVRINIIVDGREIEFHGWEILVDLMKFVKGMQFTLKDSDIINGVLKIDGKTRQGDKITDVEIEFHVVNGRVKEIHVHIL
  protease stability score: 2.48

## DEERKFWHELAELLFHIHLTGDEDMLRHLLDPHVRSDINGVELHGREQAAEHFHKLMKTLGVKHIHHKRMHTIGDKTIIHGESEVDGRILHVHNHFWVVNGKVEEVKMHIE
  protease stability score: 0.495

## DEERKHSEDLKDMHLKSMLTGDEEFISHLADPNVRIVFNGRDLHGRELLHEILKRINEELGVSNIEVRLHHIEIVGEWVHIHGRLHWNGRTSRIHLLLFKIDGQWNIKSIHIEIE
  protease stability score: 1.22

## DEERKIAEKFAELYQHWEHTGNEDEMRSFFDPNYRLFVGEKEFVGRKTRSRWHREYIEKLGVDHVEIQDYRVQGNFVESDLVLRFNGREVKTEIRINVIDGRIKEVHIITH
  protease stability score: 0.198

## DEERKIVEKWANEFLQAQITGDEDWFREYADPTTRYNLHIGDYDLHLHGRELVLTFLHEILRKFKNIKIEIKRRNIQGEKTDIDGVENYNGVEHRVRIHLVVINGQLKSYTIKEH
  protease stability score: 0.604

## DEERKIVLESVRLWLDEWETGDESALEKLMDPNVRVIIGDKTVHGREQMIKFLREWLTRYDHLEIKLRDIKVIGDKIHVESEFRYHIGDKELSHRTNVVLKIVDGKLKSVRVDFE
  protease stability score: 1.93

## DEERKLATELFKWLIDLYLTGDEETFEKLADPHYLSDVNGRNIHGMELISHIWREEIEKYGWEIHIKIRHIELQGDKSKSETEIHNNYDGRRIVFETRIIVRIVNGRIKSIEVRFR
  protease stability score: 1.28

## DEERKMYTYAHKLLKTSHDTGNEDDLTNLVDPNVRIDINGRDIHGWDFWHEMMTKLGVNVFETKHVELQGNKLHIDGTLHVDGRTHRVTINNIKIDGRWIIKHVHIE
  protease stability score: -0.3

## DEERKRSEELMKLEIHVFETGDWEWYREMADPNTRMHIDGKDFHGREEIYKFLHEHHLRFKNIKIHFEHIELQGEYVHNDVIIHVNGVDLIAHIIIVVVNGRVTHSEFQLE
  protease stability score: 1.17

## DEERKSTELALKHWHESMRTGDEHDTRRMMDPNVRVEIGDKTYVGREDVLEFMHRLGANHVEHFEIEDWKIVNGKVVMHGHSRVRIGDFEANTEVIIFSQKFNGRWFLESVIIV
  protease stability score: 0.656

## DEERKWTKEALDKLLRVIATGDEDFINQNADPRVRLEINGVEIHGRELWHKILKDHSERMGVKHTHLESHDEFNGVITIHMRLFVGDKETRIEIINLKVDGKWIIKSLRIE
  protease stability score: 1.22

## DEERQESEEALRHSMELWATGDFESLSRNVDPNVRVEIGDKTFHGWEIAHELFHKIKNLTVHLEDHEIQGEKVTIHGVLNFNGKREHVRLYSKKVNGRWILEKVQVG
  protease stability score: 2.17

## DEERQRAHKWMHDWIKAYLTGDEEHQNQMLDPNMRIEYGDKTHHGRDILIEIFREELRQVDHIEIRIRHIDNFEGRVRTDGELHVKINGRREHYDIILEYDVVNGKLKIERWDIR
  protease stability score: 1.45
